{"source": "patent US20220356213A1", "about": "(MAX PLANCK GESELLSCHAFT ZUR F RDERUNG DER WISSENSCHAFTEN E V, published 2022)", "binders": {"B1": {"name": "SspB_Nano-SctQ (other)", "chain": "MSLRSGAGSSPKRPKLLREYYDWLVDNSFTPYLVVDATYLGVNVPVEYVKDGQIVLNLSASATGNLQLTNDFIQFNARFKGVSRELYIPMGAALAIYARENGDGVMFEPEEIYDELNIGGAGELGGSGGSGGSLLTLPQAKLSELSLRQRLSHYRQNYLWEEGKLELTVSEPPSSLNCILQLQWKGTHFTLYCFGDDLANWLTPDLLGAPFSTLPKELQLALLERQTVFLPKLVCNDIATASLSVTQPLLSLRLSRDNAHISFWLTSAEALFALLPARPNSERIPLPILLSLRWHKVYLTLDEVDSLRLGDVLLAPEGSGPNSPVLAYVGENPWGYFQLQSNKLEFIGMSHESDELNPKPLTDLNQLPVQVSFEVGRQILDWHTLTSLEPGSLIDLTTPVDGEVRLLANGRLLGHGRLVEIQGRLGVRIERLTEVTIS"}}, "molecular_target": "T1, TMH-FLAG-(L1)-iLID", "T1 chain": "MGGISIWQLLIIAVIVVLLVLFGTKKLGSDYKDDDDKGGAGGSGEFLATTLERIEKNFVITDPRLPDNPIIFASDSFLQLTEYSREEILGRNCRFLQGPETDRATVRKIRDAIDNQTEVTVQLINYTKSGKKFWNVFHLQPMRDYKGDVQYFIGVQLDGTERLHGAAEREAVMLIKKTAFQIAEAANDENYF", "test": "cell-based or functional assay", "data": [{"binder": "B1", "values": [{"measurement": "L/D ratio of export of heterologous cargo YopE1-53-NanoLuc-FLAG, LITESEC-supp2", "result": "< 0.02"}, {"measurement": "L/D ratio of export of heterologous cargo, LITESEC-supp2", "result": 0.01}, {"measurement": "export of heterologous cargo, LITESEC-supp2, dark", "result": 205, "unit": "% WT secretion"}, {"measurement": "export of heterologous cargo, LITESEC-supp2, light", "result": 2, "unit": "% WT secretion"}, {"measurement": "light/dark secretion ratio (L/D ratio), LITESEC-supp1, native T3SS substrates, in vitro secretion assay", "result": 0.28}, {"measurement": "light/dark secretion ratio (L/D ratio), LITESEC-supp2 (anchor from pACYC184), native T3SS substrates", "result": 0.26}]}]}
